# Results: US20110135647A1 (ONCOTHERAPY SCIENCE, published 2011)
# B1: HA-tagged PBK/TOPK (HA-PBK/TOPK), wild type (enzyme)
# chain: MEGISNFKTPSKLSEKKKSVLCSTPTINIPASPFMQKLGFGTGVNVYLMKRSPRGLSHSPWAVKKINPICNDHYRSVYQKRLMDEAKILKSLHHPNIVGYRAFTEANDGSLCLAMEYGGEKSLNDLIEERYKASQDPFPAAIILKVALNMARGLKYLHQEKKLLHGDIKSSNVVIKGDFETIKICDVGVSLPLDENMTVTDPEACYIGTEPWKPKEAVEENGVITDKADIFAFGLTLWEMMTLSIPHINLSNDDDDEDKTFDESDFDDEAYYAALGTRPPINMEELDESYQKVIELFSVCTNEDPKDRPSAAHIVEALETDV
# notes: Expressed in COS-7 or T47D cells; also called HA-tagged TOPK; WT; not shown: N-terminal HA tag (pCAGGSnHA)
# B2: FLAG-tagged ERα (ERα-FLAG) (receptor, UniProt P03372 1-595, looked up)
# chain: MTMTLHTKASGMALLHQIQGNELEPLNRPQLKIPLERPLGEVYLDSSKPAVYNYPEGAAYEFNAAAAANAQVYGQTGLPYGPGSEAAAFGSNGLGGFPPLNSVSPSPLMLLHPPPQLSPFLQPHGQQVPYYLENEPSGYTVREAGPPAFYRPNSDNRRQGGRERLASTNDKGSMAMESAKETRYCAVCNDYASGYHYGVWSCEGCKAFFKRSIQGHNDYMCPATNQCTIDKNRRKSCQACRLRKCYEVGMMKGGIRKDRRGGRMLKHKRQRDDGEGRGEVGSAGDMRAANLWPSPLMIKRSKKNSLALSLTADQMVSALLDAEPPILYSEYDPTRPFSEASMMGLLTNLADRELVHMINWAKRVPGFVDLTLHDQVHLLECAWLEILMIGLVWRSMEHPGKLLFAPNLLLDRNQGKCVEGMVEIFDMLLATSSRFRMMNLQGEEFVCLKSIILLNSGVYTFLSSTLKSLEEKDHIHRVLDKITDTLIHLMAKAGLTLQQQHQRLAQLLLILSHIRHMSNKGMEHLYSMKCKNVVPLYDLLLEMLDAHRLHAPTSRGGASVEETDQSHLATAGSTSSHSLQKYYITGEAEGFPATV
# notes: Expressed in COS-7 cells; also called FLAG-ERα; estrogen receptor α; not shown: FLAG tag
# What was measured:
# [1] = target: T1, myc-tagged p97 (p97/VCP-myc-6×His) (human, UniProt P55072 1-806); experiment: co-immunoprecipitation with HA-tag antibody from co-transfected cells
# T1 construct: Expressed in COS-7 cells; also called myc-p97; p97/VCP-myc-His; not shown: C-terminal myc-6×His tag of pcDNA3.1-myc-His
# [2] = target: T2, GST-tagged PP1α (GST-PP1α) (human, UniProt P62136 1-330); experiment: anti-HA immunoprecipitation from co-transfected COS-7 cells, anti-GST blot
# T2 construct: also called GST-fused PP1α; not shown: glutathione S-transferase (GST) tag of the pCAGGS-nGST vector, N-terminal
# [3] = target: T3, HA-tagged A7322 (A7322-HA) (human, UniProt Q5TH69 1-2177); experiment: co-immunoprecipitation from co-transfected COS-7 cells, anti-FLAG IP / anti-HA blot and the reverse
# T3 construct: Expressed in COS-7 cells for the ERα co-immunoprecipitation; not shown: HA tag
# T3 sequence (Q5TH69 whole entry): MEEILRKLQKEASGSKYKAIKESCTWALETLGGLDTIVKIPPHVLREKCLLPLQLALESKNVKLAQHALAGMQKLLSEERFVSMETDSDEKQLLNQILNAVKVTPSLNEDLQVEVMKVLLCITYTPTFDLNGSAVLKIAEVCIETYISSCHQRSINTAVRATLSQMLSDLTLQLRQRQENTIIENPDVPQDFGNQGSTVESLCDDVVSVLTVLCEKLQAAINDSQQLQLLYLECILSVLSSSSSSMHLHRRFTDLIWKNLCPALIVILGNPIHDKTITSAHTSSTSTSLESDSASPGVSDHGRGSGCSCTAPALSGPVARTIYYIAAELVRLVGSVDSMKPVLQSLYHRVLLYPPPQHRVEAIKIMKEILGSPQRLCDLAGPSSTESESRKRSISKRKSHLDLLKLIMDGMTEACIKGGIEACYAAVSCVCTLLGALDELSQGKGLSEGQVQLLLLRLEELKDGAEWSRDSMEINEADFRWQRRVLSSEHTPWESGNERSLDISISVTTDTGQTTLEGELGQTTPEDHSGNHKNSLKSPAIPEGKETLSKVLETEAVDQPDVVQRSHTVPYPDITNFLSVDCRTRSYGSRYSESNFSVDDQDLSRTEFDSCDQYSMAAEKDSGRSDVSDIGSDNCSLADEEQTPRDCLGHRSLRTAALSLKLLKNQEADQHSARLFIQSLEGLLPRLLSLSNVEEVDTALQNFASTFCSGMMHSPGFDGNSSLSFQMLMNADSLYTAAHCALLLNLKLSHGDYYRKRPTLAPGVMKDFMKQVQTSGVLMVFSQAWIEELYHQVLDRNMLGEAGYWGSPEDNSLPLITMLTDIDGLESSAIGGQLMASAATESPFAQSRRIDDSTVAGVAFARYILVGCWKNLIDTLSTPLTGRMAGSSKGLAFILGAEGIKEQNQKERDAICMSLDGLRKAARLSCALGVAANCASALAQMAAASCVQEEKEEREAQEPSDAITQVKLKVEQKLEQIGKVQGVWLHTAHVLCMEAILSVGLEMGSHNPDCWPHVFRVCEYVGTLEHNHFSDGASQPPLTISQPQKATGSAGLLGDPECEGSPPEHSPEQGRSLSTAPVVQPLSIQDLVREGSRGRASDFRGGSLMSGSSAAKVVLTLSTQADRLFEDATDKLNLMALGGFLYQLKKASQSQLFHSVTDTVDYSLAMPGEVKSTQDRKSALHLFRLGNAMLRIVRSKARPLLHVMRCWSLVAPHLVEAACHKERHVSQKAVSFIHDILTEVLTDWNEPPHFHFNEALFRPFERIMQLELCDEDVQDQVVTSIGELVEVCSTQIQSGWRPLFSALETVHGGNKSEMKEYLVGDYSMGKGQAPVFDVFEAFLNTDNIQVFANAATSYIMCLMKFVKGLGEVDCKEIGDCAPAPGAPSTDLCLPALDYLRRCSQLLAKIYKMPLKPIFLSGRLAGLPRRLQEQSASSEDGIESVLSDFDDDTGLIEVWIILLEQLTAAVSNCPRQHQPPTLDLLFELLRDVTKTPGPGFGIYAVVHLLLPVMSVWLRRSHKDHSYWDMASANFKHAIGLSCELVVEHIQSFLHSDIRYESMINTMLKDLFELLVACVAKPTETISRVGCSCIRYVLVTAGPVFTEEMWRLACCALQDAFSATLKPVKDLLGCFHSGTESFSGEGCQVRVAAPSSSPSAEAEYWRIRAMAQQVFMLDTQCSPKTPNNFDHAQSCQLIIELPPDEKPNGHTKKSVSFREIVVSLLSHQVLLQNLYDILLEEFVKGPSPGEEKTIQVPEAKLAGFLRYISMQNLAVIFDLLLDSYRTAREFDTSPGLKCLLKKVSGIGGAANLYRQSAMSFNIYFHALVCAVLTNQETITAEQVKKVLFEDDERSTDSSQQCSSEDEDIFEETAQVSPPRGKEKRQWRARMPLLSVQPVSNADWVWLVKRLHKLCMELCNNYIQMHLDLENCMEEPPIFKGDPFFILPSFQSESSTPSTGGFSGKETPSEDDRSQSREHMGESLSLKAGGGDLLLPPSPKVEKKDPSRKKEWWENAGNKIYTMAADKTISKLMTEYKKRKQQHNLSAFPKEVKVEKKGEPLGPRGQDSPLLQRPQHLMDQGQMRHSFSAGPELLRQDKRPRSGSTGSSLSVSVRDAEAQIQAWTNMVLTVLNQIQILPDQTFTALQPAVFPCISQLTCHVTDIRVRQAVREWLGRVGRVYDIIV
# T1 sequence (P55072 whole entry): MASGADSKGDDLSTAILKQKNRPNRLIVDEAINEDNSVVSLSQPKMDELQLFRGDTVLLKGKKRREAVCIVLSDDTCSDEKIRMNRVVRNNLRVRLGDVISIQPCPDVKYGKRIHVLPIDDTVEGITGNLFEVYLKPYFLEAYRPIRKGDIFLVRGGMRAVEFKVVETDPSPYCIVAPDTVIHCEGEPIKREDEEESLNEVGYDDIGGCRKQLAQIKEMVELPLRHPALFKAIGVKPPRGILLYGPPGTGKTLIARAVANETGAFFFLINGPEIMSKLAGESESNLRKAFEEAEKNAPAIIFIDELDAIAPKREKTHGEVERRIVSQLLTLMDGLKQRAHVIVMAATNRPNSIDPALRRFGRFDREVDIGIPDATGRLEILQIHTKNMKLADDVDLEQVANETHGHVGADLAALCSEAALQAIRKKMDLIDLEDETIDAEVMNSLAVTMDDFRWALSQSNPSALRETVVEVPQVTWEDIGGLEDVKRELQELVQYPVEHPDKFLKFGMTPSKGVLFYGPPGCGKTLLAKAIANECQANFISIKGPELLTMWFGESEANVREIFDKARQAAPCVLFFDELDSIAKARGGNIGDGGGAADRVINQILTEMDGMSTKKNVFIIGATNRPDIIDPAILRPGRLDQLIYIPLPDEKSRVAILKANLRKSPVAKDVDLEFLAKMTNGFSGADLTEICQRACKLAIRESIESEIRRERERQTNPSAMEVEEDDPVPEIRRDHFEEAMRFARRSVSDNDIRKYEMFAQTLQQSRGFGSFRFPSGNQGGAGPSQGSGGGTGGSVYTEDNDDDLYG
# T2 sequence (P62136 whole entry, the tested form may be a part): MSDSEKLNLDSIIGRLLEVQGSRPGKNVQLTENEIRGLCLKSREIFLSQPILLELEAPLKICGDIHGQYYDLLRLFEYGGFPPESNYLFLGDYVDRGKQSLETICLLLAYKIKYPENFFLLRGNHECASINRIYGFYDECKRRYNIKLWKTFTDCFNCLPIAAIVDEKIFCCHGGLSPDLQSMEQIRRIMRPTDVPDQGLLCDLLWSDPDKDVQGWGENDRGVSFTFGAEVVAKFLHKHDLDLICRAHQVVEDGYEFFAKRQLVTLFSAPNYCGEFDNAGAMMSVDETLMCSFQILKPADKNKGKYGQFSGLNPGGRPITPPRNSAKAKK
Binder,binding result [1],binding result [2],binding result [3]
B1,no binding,binds,
B2,,,no binding
